# Residue numbers refer to the chain shown, from its start.
# T1: human Trop2 on cells (FaDu cells, endogenous; ExpiCHO cells overexpressing human Trop2) (human, UniProt P09758 27-323)
# T1 construct: Cell-surface form
# T1 sequence: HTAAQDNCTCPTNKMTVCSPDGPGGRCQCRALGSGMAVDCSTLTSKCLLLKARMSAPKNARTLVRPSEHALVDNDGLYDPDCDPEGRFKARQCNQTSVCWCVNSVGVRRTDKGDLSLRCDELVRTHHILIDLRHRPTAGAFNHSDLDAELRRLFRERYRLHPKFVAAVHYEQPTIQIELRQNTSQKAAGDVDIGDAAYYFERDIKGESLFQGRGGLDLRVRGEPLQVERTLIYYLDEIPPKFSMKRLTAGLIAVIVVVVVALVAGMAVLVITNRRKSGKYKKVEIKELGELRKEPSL
# T2: human TROP2 (purified recombinant antigen, Acro Biosystems Cat #TR2-H5223) (human, UniProt P09758 27-274)
# T2 construct: Bought recombinant protein; also called huTROP2
# T2 sequence: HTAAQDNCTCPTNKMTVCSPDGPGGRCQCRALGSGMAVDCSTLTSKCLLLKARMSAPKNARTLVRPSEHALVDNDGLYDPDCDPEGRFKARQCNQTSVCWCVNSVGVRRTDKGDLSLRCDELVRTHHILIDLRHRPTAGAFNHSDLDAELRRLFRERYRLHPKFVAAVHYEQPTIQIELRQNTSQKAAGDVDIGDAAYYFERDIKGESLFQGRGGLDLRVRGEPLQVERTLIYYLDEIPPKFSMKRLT
# T3: mouse TROP2 (purified recombinant antigen, Acro Biosystems Cat #TR2-M52H6) (mouse, UniProt Q8BGV3 25-270)
# T3 construct: Bought recombinant protein; also called msTROP2
# T3 sequence: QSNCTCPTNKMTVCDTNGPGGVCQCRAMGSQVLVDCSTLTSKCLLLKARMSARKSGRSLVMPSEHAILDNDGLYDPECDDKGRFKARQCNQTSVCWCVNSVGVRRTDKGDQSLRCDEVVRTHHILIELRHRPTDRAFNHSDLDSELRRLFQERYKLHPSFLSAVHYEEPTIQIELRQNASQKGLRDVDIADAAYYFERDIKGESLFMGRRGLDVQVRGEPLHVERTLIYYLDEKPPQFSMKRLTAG
# T4: human EpCAM (purified recombinant antigen, Acro Biosystems Cat #EPM-H5223) (human, UniProt P16422 24-265)
# T4 construct: Bought recombinant protein
# T4 sequence: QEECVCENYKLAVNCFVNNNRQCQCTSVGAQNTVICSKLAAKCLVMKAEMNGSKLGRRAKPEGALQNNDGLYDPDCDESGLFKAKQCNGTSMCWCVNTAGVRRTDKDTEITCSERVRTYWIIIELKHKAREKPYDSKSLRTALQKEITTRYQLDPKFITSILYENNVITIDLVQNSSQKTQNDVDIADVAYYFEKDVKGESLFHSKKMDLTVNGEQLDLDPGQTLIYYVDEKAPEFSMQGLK
# T5: cynomolgus/rhesus TROP2 (purified recombinant antigen, Acro Biosystems Cat #TR2-R52H3) (cynomolgus/rhesus, UniProt P09758 27-274 (human entry))
# T5 construct: Bought recombinant protein; also called cyTROP2; cyno/rhesus TROP2
# T5 chain: T2 sequence with M36V, S67N, I204V
# B1: SD-685208 (antibody, V domains shown)
# VH: AVTLDESGGGLQTPGGALSLVCKASGFDFIDYDMFWVRQAPGKGLEWVGVINRSGSYTNYAPAVKGRATISRDNGQSTMRLQLNNLRAEDTGTYYCARGACTHCWDADSAGYIDAWGHGTEVIVSS
# VL: ALALTQPSSVSANPGETVKITCSGSSGSYGWFQQKSPGSAPVTVIYWNDKRPSDIPSRFSGSTSGSTGTLTITGVQADDEAVYFCGNADSSGTFGAGTTLTVL
# notes: Chicken/human chimera
# B2: RS7 (antibody, V domains shown)
# VH: QVQLQQSGSELKKPGASVKVSCKASGYTFTNYGMNWVKQAPGQGLKWMGWINTYTGEPTYTDDFKGRFAFSLDTSVSTAYLQISSLKADDTAVYFCARGGFGSSYWYFDVWGQGSLVTVSS
# VL: DIQLTQSPSSLSASVGDRVSITCKASQDVSIAVAWYQQKPGKAPKLLIYSASYRYTGVPDRFSGSGSGTDFTLTISSLQPEDFAVYYCQQHYITPLTFGAGTKVEIKR
# B3: SD-394517 (antibody, V domains shown)
# VH: AVTLDESGGGLQTPGGALSLVCKGSGFTFSSYAMGWVRQAPGKGLEYVAAISSGSSTGYGAAVKGRATISRDTGQSTVRLQLNNLRAEDTATYYCAKSGYGGSASYVSDIDAWGHGTEVIVSS
# VL: ALALTQPSSVSANPGETVEITCSGGGDYYGTYYYGWYQQKAPGSAPVTVIYDNTKRPSNIPSRFSGSTSGSTNTLTITGVQADDEAVYYCGSYDSSAGIFGAGTTLTVL
# notes: Chicken/human chimera
# B4: SD-457798 (antibody, V domains shown)
# VH: B3 VH with R71K
# VL: ALALTQPSSVSANPGETVEITCSGGGDYYGTYYYGWYQQKAPGSAPVTVIYDNTKRPSNIPSRFSGSTSGSTNTLTITGVQADDEAIYFCGSYKSNTFGAGTTLTVL
# notes: Chicken/human chimera
# B5: SD-970200 (antibody, V domains shown)
# VH: B3 VH with R71K
# VL: B3 VL
# notes: Chicken/human chimera
# B6: 589-VH_5 + 589-VL_1 (antibody, V domains shown)
# VH: B1 VH with A17G
# VL: SYELTQPPSVSVSPGQTASITCSGSSGSYGWYQQKPGQSPVLVIYSSDKRPSGIPERFSGSNSGNTATLTISGTQAMDEADYYCGGYDGSTDVGIFGGGTKLTVL
# notes: parental VH with humanized VL
# B7: 589-VH_5 + 589-VL_2 (antibody, V domains shown)
# VH: B1 VH with A17G
# VL: B6 VL with Y2L, Y32H, L42T, N62S, N65S
# notes: parental VH with humanized VL
# B8: 589-VH_2 + 589-VL_1 (antibody, V domains shown)
# VH: QVQLLESGGGLVKPGGSLRLSCAASGFDFIDYDMFWIRQAPGKGLEWVGVINRSGSYTNYAPAVKGRATISRDNAKNSMYLQMNSLRAEDTAVYYCARGACTHCWDADSAGYIDAWGQGTLVTVSS
# VL: B6 VL
# B9: 589-VH_2 + 589-VL_4 (antibody, V domains shown)
# VH: B8 VH
# VL: ALALTQPSSVSANPGGTVKITCSGSSGSYGWHQQKSPGSAPVTVIYSSDKRPSDIPSRFSGALSGSTATLTITGVRAEDEAVYYCGGYDGSTDVGIFGAGTTLTVL
# B10: 589-VH_1 + 589-VL_4 (antibody, V domains shown)
# VH: B8 VH with D28T, I30S, G49S, A68F, M79L
# VL: B9 VL
# B11: 589-VH_3 + 589-VL_2 (antibody, V domains shown)
# VH: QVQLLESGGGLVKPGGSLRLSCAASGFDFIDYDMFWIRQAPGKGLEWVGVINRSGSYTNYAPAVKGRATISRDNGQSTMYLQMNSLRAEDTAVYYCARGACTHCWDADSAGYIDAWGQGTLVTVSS
# VL: B6 VL with Y2L, Y32H, L42T, N62S, N65S
# B12: 589-VH_1 + 589-VL_2 (antibody, V domains shown)
# VH: B8 VH with D28T, I30S, G49S, A68F, M79L
# VL: B6 VL with Y2L, Y32H, L42T, N62S, N65S
# B13: 589-VH_3 + 589-VL_4 (antibody, V domains shown)
# VH: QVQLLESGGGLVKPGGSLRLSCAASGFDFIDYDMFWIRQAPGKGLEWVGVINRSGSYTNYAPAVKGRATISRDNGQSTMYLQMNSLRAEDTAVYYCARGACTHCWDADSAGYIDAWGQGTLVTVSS
# VL: B9 VL
# B14: 589-VH_2 + 589-VL_2 (antibody, V domains shown)
# VH: B8 VH
# VL: B6 VL with Y2L, Y32H, L42T, N62S, N65S
# notes: also called SD-861408
# B15: 589-VH_1 + 589-VL_1 (antibody, V domains shown)
# VH: B8 VH with D28T, I30S, G49S, A68F, M79L
# VL: B6 VL
# B16: 589-VH_3 + 589-VL_1 (antibody, V domains shown)
# VH: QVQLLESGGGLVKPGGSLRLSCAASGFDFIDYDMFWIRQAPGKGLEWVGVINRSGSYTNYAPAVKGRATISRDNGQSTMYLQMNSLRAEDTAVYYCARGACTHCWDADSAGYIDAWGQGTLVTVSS
# VL: B6 VL
# Molecular target: T1, human Trop2 on cells (FaDu cells, …)
# Experiment: flow cytometry on FaDu cells (endogenous human Trop2); average of n=1-3 experiments
row,EC50 [nM],Binder
1,0.513,B1
2,2,B2
3,2.04,B3
4,1.06,B4
5,1.53,B5

# Molecular target: T2, human TROP2 (purified recombinant …)
# Experiment: SPR (Carterra LSA), antibody captured through human Fc, huTROP2 as analyte; KD plotted for each VH/VL combination
row,binding result,Binder
1,binds,B6
2,binds,B7
3,binds,B8
4,binds,B9
5,binds,B10
6,binds,B11
7,binds,B12
8,binds,B13
9,binds,B14
10,binds,B15
11,binds,B16

# Molecular target: T1, human Trop2 on cells (FaDu cells, …)
# Experiment: flow cytometry on ExpiCHO cells overexpressing human Trop2, percent of cells bound
row,EC50 (read off the curve) [nM],Binder
1,~0.03,B2
2,~0.05,B5

# Molecular target: T3, mouse TROP2 (purified recombinant …)
# Experiment: SPR, Carterra LSA; ratio of KD values, reference huTROP2
row,Fold difference in affinity (huTROP2:msTROP2) [fold],Binder
1,3,B1
2,1.5,B3
3,0.5,B4
4,3,B5

# Molecular target: T2, human TROP2 (purified recombinant …)
# Experiment: MSD assay: biotinylated TROP2 on streptavidin plate, antibody titrated, anti-human SULFO-TAG detection
row,EC50 (read off the curve) [nM],Binder
1,~0.08,B1
2,~0.3,B2
3,~0.2,B5

# Molecular target: T2, human TROP2 (purified recombinant …)
# Experiment: SPR, Carterra LSA; antibody captured on anti-human IgG, antigen injected; 1:1 fit
Kd [nM],koff [s⁻¹],kon [M⁻¹ s⁻¹],Binder
3.81,0.000898,235000,B1
1.81,0.000201,111000,B2
0.76,0.000303,396000,B3
0.64,0.000259,403000,B4
0.21,0.000114,555000,B5

# Molecular target: T4, human EpCAM (purified recombinant …)
# Experiment: SPR, Carterra LSA; antibody captured on anti-human IgG, antigen injected
row,Binder,binding result
1,B1,no binding (tested: 1 µM top concentration)
2,B3,no binding (tested: 1 µM top concentration)
3,B4,no binding (tested: 1 µM top concentration)
4,B5,no binding (tested: 1 µM top concentration)

# Molecular target: T2, human TROP2 (purified recombinant …)
# Experiment: SPR, Carterra LSA; antibody captured on anti-human IgG, antigen injected; 1:1 fit
# Remark: another data set of the same source
row,Kd [nM],Binder
1,3.81,B1
2,1.81,B2
3,0.76,B3
4,0.64,B4
5,0.21,B5

# Molecular target: T5, cynomolgus/rhesus TROP2 (purified …)
# Experiment: as above
row,Kd [nM],Binder
1,6.08,B1
2,2.05,B2
3,0.92,B3
4,0.96,B4
5,0.29,B5

# Molecular target: T3, mouse TROP2 (purified recombinant …)
# Experiment: as above
row,Kd [nM],Binder
1,11.4,B1
2,1.18,B3
3,0.34,B4
4,0.63,B5

# From patent US20250019457A1 (IBIO, published 2025)
